From paper PMC11782662, “Phase separation of a microtubule plus-end tracking protein into a fluid fractal network” (Nature Communications, 2025) come the findings set out here.

As a reminder, the stoichiometry N is a count of units in the complex or per binding partner.

The series deals with the molecule itself. Kind of series: SEC-SAXS; Shodex KW-404 column in line with SAXS; 20 mM Tris-HCl, pH 7.5, 500 mM NaCl, 2% glycerol, 1 mM DTT; injected at 4, 6 and 8 mg/ml; ab initio envelopes (DAMMIF).

B1: N-terminally His-tagged, full-length Bik1 (natural protein, S. cerevisiae, UniProt P11709 1-440, looked up)
chain: MDRYQRKIGCFIQIPNLGRGQLKYVGPVDTKAGMFAGVDLLANIGKNDGSFMGKKYFQTEYPQSGLFIQLQKVASLIEKASISQTSRRTTMEPLSIPKNRSIVRLTNQFSPMDDPKSPTPMRSFRITSRHSGNQQSMDQEASDHHQQQEFGYDNREDRMEVDSILSSDRKANHNTTSDWKPDNGHMNDLNSSEVTIELREAQLTIEKLQRKQLHYKRLLDDQRMVLEEVQPTFDRYEATIQEREKEIDHLKQQLELERRQQAKQKQFFDAENEQLLAVVSQLHEEIKENEERNLSHNQPTGANEDVELLKKQLEQLRNIEDQFELHKTKWAKEREQLKMHNDSLSKEYQNLSKELFLTKPQDSSSEEVASLTKKLEEANEKIKQLEQAQAQTAVESLPIFDPPAPVDTTAGRQQWCEHCDTMGHNTAECPHHNPDNQQFF
notes: Bik1, S. cerevisiae, UniProt P11709, full length (domains described over residues 1-440); Vector PSPCm2: N-terminal 6xHis-tag followed by a PreScission cleavage site; also called Bik1 FL; FL; source: E. coli BL21-CodonPlus (DE3)-RIPL, purified (IMAC, SEC); not shown: His6, N-terminal, kept
B1: the “stoichiometry N” value was 2.

B2: Bik1 ΔQQFF (domain or fragment, S. cerevisiae, UniProt P11709 1-436, looked up)
chain: MDRYQRKIGCFIQIPNLGRGQLKYVGPVDTKAGMFAGVDLLANIGKNDGSFMGKKYFQTEYPQSGLFIQLQKVASLIEKASISQTSRRTTMEPLSIPKNRSIVRLTNQFSPMDDPKSPTPMRSFRITSRHSGNQQSMDQEASDHHQQQEFGYDNREDRMEVDSILSSDRKANHNTTSDWKPDNGHMNDLNSSEVTIELREAQLTIEKLQRKQLHYKRLLDDQRMVLEEVQPTFDRYEATIQEREKEIDHLKQQLELERRQQAKQKQFFDAENEQLLAVVSQLHEEIKENEERNLSHNQPTGANEDVELLKKQLEQLRNIEDQFELHKTKWAKEREQLKMHNDSLSKEYQNLSKELFLTKPQDSSSEEVASLTKKLEEANEKIKQLEQAQAQTAVESLPIFDPPAPVDTTAGRQQWCEHCDTMGHNTAECPHHNPDN
notes: Bik1, S. cerevisiae, UniProt P11709, lacking the C-terminal EEY/F-like motif (peptide Gln-Gln-Phe-Phe); N-terminal 6xHis-tag followed by a PreScission site, tag retained; source: E. coli BL21-CodonPlus (DE3)-RIPL, purified (IMAC, SEC); not shown: His6, N-terminal, kept
With B2, the binding result was “binds”.
